The experiment addresses T1, natural Can f 1 (Canis lupus familiaris (dog)).
T1 construct: Can f 1, major dog allergen, lipocalin, Canis familiaris; isolated from the natural source; model in the complex with 1J11 Fab starts at Ala5; numbers count on: the mature protein; Natural preparation; also called nCan f 1
As to the kind of experiment: SPR; localized surface plasmon resonance (LSPR) on an OpenSPR (Nicoya Lifesciences). Conditions: both partners purified.

T1 sequence (chain, as listed by the source): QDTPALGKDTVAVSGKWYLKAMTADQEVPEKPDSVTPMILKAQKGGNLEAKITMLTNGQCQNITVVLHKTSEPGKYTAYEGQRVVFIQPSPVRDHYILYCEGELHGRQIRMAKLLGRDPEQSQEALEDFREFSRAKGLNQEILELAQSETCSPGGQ

B1: human IgE monoclonal antibody 1J11 (antibody, V domains shown)
VH: QVQLVESGGGVVQPGSSLRLSCAVSGFTVRSYGMHWVRQAPGKGLEWVALILFDGTTKHYADSVKGRFTISRDNSKDTLYLQMTSLGAEDTAMYYCVRDFNQFVKRFVDGPAFDLWGQGTRVTVSS
VL: SYELTQPPSVSVSPGQTANITCSGDKLGDKFTSWYQQRPGQSPVLVIYQDIERPSGIPERFSGSNSGNTATLTISGTQALDEADYYCQAWDTSTVVFGGGTRLTVL
notes: variable region as the heavy chain of m4 (PDB 8VQF); as the light chain of m4 (PDB 8VQF); Human IgE; details of isolation, production and purification are in Supplementary material; also called hIgE mAb 1J11; IgE mAb 1J11; source: B cell hybridomas from allergic subjects; copies: 2 + 2
Regarding B1, the Kd was 0.2 ± 0.1 nM.

B2: human IgE monoclonal antibody 12F3 (antibody, V domains shown)
VH: QVQLVQSGAEVQKPGSSVKVSCKASGGTFSRYPLIWVRQTPGQGLEWMGGIFPVIGRTNYAEKFQGRVTITADESTSTAYMELNSLTSEDTAVYYCARLDTYEILGYGTDVWGQGTTVTVSS
VL: EIVLTQSPATLSLSPGERATLSCRASESVSSSVAWYQQKFGQAPRLLIYDASNRATGIPARFSGSGSGTDFTLTISSLEPEDFAVYYCQLRSNWPPLTFGGGTKVQIK
notes: variable region as the heavy chain of m5 (PDB 9NPI); as the light chain of m5 (PDB 9NPI); Human IgE; details of isolation, production and purification are in Supplementary material; also called hIgE mAb 12F3; IgE mAb 12F3; source: B cell hybridomas from allergic subjects; copies: 2 + 2
For the molecule B2, binding was put at a Kd of 3.6 ± 1.3 nM.

These data come from paper PMC12363406, “Human IgE monoclonal antibodies define two unusual epitopes trapping dog allergen Can f 1 in different conformations” (Protein Science : A Publication of the Protein Society, 2025).
